The text below walks through data of PMC10144703, “Molecular Mechanism of Sirtuin 1 Inhibition by Human Immunodeficiency Virus 1 Tat Protein” (Life, 2023).

In one experiment the target is T1, human Sirt2 (Homo sapiens, UniProt Q8IXJ6).
T1 construct: Sirt2-(43-356) in a modified pET-19b; His6-Sumo; made in house; host or cells: E. coli CodonPlus(DE3)
T1 sequence (Q8IXJ6 43-356): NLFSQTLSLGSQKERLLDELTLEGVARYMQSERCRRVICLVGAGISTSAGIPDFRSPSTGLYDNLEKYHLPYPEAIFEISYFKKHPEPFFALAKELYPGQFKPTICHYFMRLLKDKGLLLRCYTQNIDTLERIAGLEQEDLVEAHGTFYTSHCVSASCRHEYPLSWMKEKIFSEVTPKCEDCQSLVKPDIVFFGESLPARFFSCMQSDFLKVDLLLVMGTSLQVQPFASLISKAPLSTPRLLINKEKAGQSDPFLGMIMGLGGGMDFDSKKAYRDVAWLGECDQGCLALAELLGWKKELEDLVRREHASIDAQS
Briefly: Continuous coupled enzymatic assay, Sirt2. The experiment is classed as biochemical. Particulars: 65 μM Tat-Cys^−, acetylated peptide at substrate Km, n = 3. The source says: A human mini-Sirt1 construct (aa 183-505-(GGGS)2-641-665), as described in [27], was generated in a modified pET-19b with a TEV cleavage site. This construct and human full-length Sirt1 (fl-Sirt1) in pET-15b, Sirt1-(183-664) and Sirt1-(214-664) in pET-15b, mini-Sirt1-∆SBD (aa 214-505-(GGGS)2-641-665) and mini-Sirt1-∆ESA (aa 183–505) in a modified pET-19b with TEV cleavage site, Sirt2-(43-356) in a modified pET-19b with a His6-Sumo tag, Sirt3-(93-399) in a modified pET-32a with Trx-His6 tag and TEV cleavage site, hSirt3-(118-399) in pVFT3S (Sungkyunkwan University, Seoul, Republic of Korea) with His6-Trx tag and TEV cleavage site, Sirt5-(34-302) in pET-151/D-TOPO, and Sirt6-(1-355) in pQE80L.1 were purified as described. […]
Continuous coupled enzymatic sirtuin activity assays were conducted as described. […] Reactions were monitored for 1 h at room temperature by absorption spectroscopy at 340 nm in a UV/vis plate reader (BioTek). The slope for the linear range (typically 5–25 min) was evaluated after background correction with measurements without NAD^+. Additional control reactions were run by either omitting enzyme or omitting peptide substrate to ensure that the signal measured reflects the NAD+-dependent deacetylation activity of the sirtuin.

For experiment [1], the target named is T2, mini-Sirt1 (Homo sapiens, UniProt Q96EB6).
T2 construct: aa 183-505-(GGGS)2-641-665; made in house; host or cells: E. coli CodonPlus(DE3)
T2 sequence (Q96EB6 with tags, fused parts or gaps limits assumed): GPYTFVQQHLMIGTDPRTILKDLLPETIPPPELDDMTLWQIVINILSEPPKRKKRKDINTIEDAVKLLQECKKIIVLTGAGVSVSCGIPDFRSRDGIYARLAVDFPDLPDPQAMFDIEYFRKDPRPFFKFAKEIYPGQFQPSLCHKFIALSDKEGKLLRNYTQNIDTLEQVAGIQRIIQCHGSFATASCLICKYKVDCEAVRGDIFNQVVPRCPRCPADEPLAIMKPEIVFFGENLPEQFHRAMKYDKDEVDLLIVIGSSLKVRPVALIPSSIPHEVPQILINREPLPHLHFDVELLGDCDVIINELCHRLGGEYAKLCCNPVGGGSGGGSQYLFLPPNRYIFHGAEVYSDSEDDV
Briefly: 2D-(1H, 15N)-HSQC NMR titration of Tat-Cys^− with mini-Sirt1. Format: binding. Particulars: 58 µM Tat-Cys^−, 2-fold molar excess mini-Sirt1, pH 6.4, 298 K. The protocol:
NMR titration experiments were performed by stepwise addition of unlabeled mini-Sirt1 (stock concentration 260 µM) to 100 µM ^15N-labeled Tat-Cys^− in 150 mM sodium chloride, and 10 mM potassium phosphate (pH 6.4). Spectra for 2D-(^1H, ^15N)-HSQC NMR were recorded at 298 K on a Bruker 700 MHz spectrometer equipped with a cryogenically-cooled probe.

In experiment [2] the target is T2, mini-Sirt1. Briefly: DSSO crosslinking and MS analysis of mini-Sirt1/Tat-Cys^−. Format: binding. Here is the method:
Prior to crosslinking, mini-Sirt1, and Tat-Cys^− were dialyzed separately at 4 °C in Xpress Micro Dialyzer tubes (Serva, MD300, cutoff 6–8 kDa) against 25 mM HEPES, pH 7.5, 150 mM NaCl, 5% (v/v) glycerol. Then, 50 µM of each protein was crosslinked at 20 °C with 2.82 mM disuccinimidyl sulfoxide (DSSO) in 5% (v/v) DMSO. Before the addition of the crosslinker, 10 µL was removed from the reaction (t = 0 min) and stopped by adding 1 µL 1 M Tris/HCl, pH 8.0. Likewise, at several timepoints after the addition of DSSO, 10 µL of the reaction was sampled. Reaction samples were supplemented with SDS sample buffer and separated on a 15% SDS-PAGE. Controls contained only one of the two proteins and were treated similarly to exclude self-crosslinking.
Crosslinked protein bands were cut out from SDS-PAGE gels and digested with 200 ng trypsin in 25 mM NH4HCO3, pH 8.0, at 37 °C overnight. The digested proteins were dried in a vacuum centrifuge, resuspended in 0.1% (v/v) FA, and injected onto a desalting column, followed by automated peptide separation with a C18 column (buffer A: 0.1% (v/v) FA, 5% (v/v) acetonitrile; buffer B: 0.1% (v/v) FA, 95% (v/v) acetonitrile). MS/MS spectra were recorded with an LTQ mass spectrometer (Thermo Fischer Scientific, Waltham, MA, USA) and CID-cleaved inter-protein crosslinks were analyzed with Byonic^TM (Protein Metrics Inc., San Carlos, CA, USA).

B1: Tat-Cys^−: Recombinant 86-residue HIV1 Zaire 2 Tat with C22S, C25A, C27A, C30S, C31A, C34S, and C37A (protein)
chain: MDPVDPNIEPWNHPGSQPKTASNRAHAKKSAYHSQVAFITKGLGISYGRKKRRQRRRPSQGGQTHQDPIPKQPSSQPRGDPTGPKE
On to B1, for which, in the experiment with human Sirt2, the “inhibitory effect on Sirt2, continuous assay” value is “pronounced inhibitory effects”. Besides, in the experiment with mini-Sirt1 [1], the “HSQC signal changes on mini-Sirt1 addition” value is “a large number of HSQC signals to disappear” and the “HSQC signals unchanged on mini-Sirt1 addition” value is reported as “mostly to Tat residues 63–87”. The “crosslinking, SDS-PAGE” value in the experiment with mini-Sirt1 [2] (50 µM each protein, 2.82 mM DSSO, 5% (v/v) DMSO, pH 7.5, 20 °C) is on record as “a strong band for a linked complex”. Besides, in the experiment with mini-Sirt1 [2] (DSSO crosslink, trypsin digest, MS/MS), the “crosslink site by MS” value was “a crosslink between Tat-Lys71 and Sirt1-Lys238”.
